From publication PMC6168491, “Sin3A recruits Tet1 to the PAH1 domain via a highly conserved Sin3-Interaction Domain” (Scientific Reports, 2018)
Changes are numbered by the printed parent chain. Names may count otherwise. Where two headings read alike, the source gives them in different places. One block for each molecule: values may come before it.

Biological target: T1, PAH1(115–212) for NMR (UniProt Q60520 115-212)
T1 construct: Sin3A PAH1 domain, residues 115–212; Same construct as m29; also called apo-PAH1; 15N-labelled PAH1(115–212); source: 15N labelled in M9 minimal media
T1 sequence (looked up): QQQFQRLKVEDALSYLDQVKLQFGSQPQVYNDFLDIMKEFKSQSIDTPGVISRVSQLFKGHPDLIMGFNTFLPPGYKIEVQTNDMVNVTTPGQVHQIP
Experiment: NMR titration; 15N-HSQC of 150 µM 15N-labelled PAH1(115–212) with 150 µM unlabelled Tet1(878–911) (1:1; also sub-stoichiometric ratio); 303 K; 20 mM Tris-HCl pH 7.4, 50 mM NaCl, 1 mM DTT; average minimal shift analysis

Molecule: Tet1-SID(878–911) L897A for NMR (from UniProt Q3URK3 861-894) (domain or fragment)
Δδmin (average minimal shift, relative to the WT complex): 0.118
Δδmin (average minimal shift, relative to the apo-protein): 0.061

B1: Tet1-SID(878–911) for NMR (domain or fragment, UniProt Q3URK3 861-894, looked up)
chain: LSLMKDRRLTLEQVVAIEALTQLSEAPSESSSPS
notes: Same construct as m24; also called WT
Kd (both partners purified): < 100 nM

B2: Tet1-SID(878–911) I894A for NMR (domain or fragment, UniProt Q3URK3 861-894, looked up)
chain: B1 chain with I17A
notes: Tag removal for NMR was conducted as needed
Δδmin (average minimal shift, relative to the WT complex) (both partners purified): 0.061

Results, then the molecule that gave them:

Δδmin (average minimal shift, relative to the WT complex) (both partners purified): 0.038
B3: Tet1-SID(878–911) T898E for NMR (domain or fragment, UniProt Q3URK3 861-894, looked up)
chain: B1 chain with T21E
notes: as for B2

Δδmin (average minimal shift, relative to the WT complex) (both partners purified): 0.074
B4: Tet1-SID(878–911) L900A for NMR (domain or fragment, UniProt Q3URK3 861-894, looked up)
chain: B1 chain with L23A
notes: as for B2

Δδmin (average minimal shift, relative to the WT complex) (both partners purified): 0.026
B5: Tet1-SID(878–911) T898A for NMR (domain or fragment, UniProt Q3URK3 861-894, looked up)
chain: B1 chain with T21A
notes: as for B2
